The labels stand for the following.
T1: Spy wild type (Escherichia coli K-12 substr. MG1655, UniProt P77754 24-161)
T1 construct: also called WT; source: E. coli BL21 (DE3), purified (Ni-NTA, cation exchange, SEC); not shown: His6, N-terminal, cleaved; SUMO, N-terminal, cleaved
T1 sequence (looked up): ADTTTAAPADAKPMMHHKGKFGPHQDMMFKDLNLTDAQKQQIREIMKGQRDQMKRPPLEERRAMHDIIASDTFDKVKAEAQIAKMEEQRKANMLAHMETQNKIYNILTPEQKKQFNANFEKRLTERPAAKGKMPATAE

T2: Spy (GGGS)2 (Escherichia coli K-12 substr. MG1655, UniProt P77754 24-161, (GGGS)2 linker inserted between D26 and M27)
T2 construct: also called Spy variant with a (GGGS)2 linker inserted between D26 and M27; source: E. coli BL21 (DE3), purified (Ni-NTA, cation exchange, SEC); not shown: His6, N-terminal, cleaved; SUMO, N-terminal, cleaved
T2 sequence (looked up): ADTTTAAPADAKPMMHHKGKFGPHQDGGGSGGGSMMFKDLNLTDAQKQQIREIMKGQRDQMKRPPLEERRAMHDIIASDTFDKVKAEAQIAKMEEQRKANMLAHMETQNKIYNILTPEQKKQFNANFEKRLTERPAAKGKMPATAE

T3: Spy wild type (Spy_(1-138)) (UniProt P77754 24-161)
T3 construct: Spy, ATP-independent periplasmic chaperone; also called WT; wt; source: E. coli BL21 (DE3), purified (Ni-NTA, cation exchange, SEC); not shown: His6, N-terminal, cleaved; SUMO, N-terminal, cleaved
T3 sequence (looked up): T1 sequence (looked up)

T4: Im7 H40W L53A I54A (UniProt Q03708 1-87, H40W | L53A | I54A, biotin (EZ-link NHS-biotin, 1:1 molar ratio of biotin to protein))
T4 construct: Im7 (colicin E7 immunity protein), partially folded mutant; also called Im7AAW; source: purified by a similar procedure to Spy
T4 sequence: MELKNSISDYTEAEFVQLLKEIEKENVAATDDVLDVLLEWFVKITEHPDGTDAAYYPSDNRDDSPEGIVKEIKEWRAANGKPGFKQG

T5: Spy_(29-124) (Escherichia coli K-12 substr. MG1655, UniProt P77754 52-147)
T5 construct: [15N]-labeled in the NMR titrations; also called termini-free Spy; source: E. coli BL21 (DE3), purified (Ni-NTA, cation exchange, SEC); not shown: His6, N-terminal, cleaved; SUMO, N-terminal, cleaved
T5 sequence (looked up): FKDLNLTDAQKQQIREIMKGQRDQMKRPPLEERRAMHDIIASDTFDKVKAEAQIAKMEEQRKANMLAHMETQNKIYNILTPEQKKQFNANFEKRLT

T6: Spy_(29-124) (UniProt P77754 52-147)
T6 construct: structured region of Spy, both disordered termini deleted; residue n is n+23 in P77754; Isotope-labelled ([15N], [13C,15N] or [2H,13C,15N]) in the NMR experiments; source: E. coli BL21 (DE3), purified (Ni-NTA, cation exchange, SEC); not shown: His6-SUMO, N-terminal, cleaved
T6 sequence (looked up): T5 sequence (looked up)

B1: Im7 H40W L53A I54A (natural protein)
chain: T4 sequence
modifications: biotin (EZ-link NHS-biotin, 1:1 molar ratio of biotin to protein)
notes: Im7, colicin E7 immunity protein (gene ceiE7), partially folded mutant H40W L53A I54A; The methods say only that Im7 variants were purified by a similar procedure to Spy (His6-SUMO tag removed); also called Im7AAW; biotin-labeled Im7AAW; source: purified by a similar procedure to Spy
B2: Im7 L18A L19A L37A (natural protein)
chain: T4 sequence with L18A, L19A, L37A, W40H, A53L, A54I
modifications: biotin (EZ-link NHS-biotin, 1:1 molar ratio of biotin to protein)
notes: Im7 (colicin E7 immunity protein) with L18A L19A L37A; also called Im7A3; unfolded client; source: purified by a similar procedure to Spy
B3: Im7 wild type (natural protein)
chain: T4 sequence with W40H, A53L, A54I
modifications: biotin (EZ-link NHS-biotin, 1:1 molar ratio of biotin to protein)
notes: Im7 (colicin E7 immunity protein), wild type; also called Im7 WT; Im7WT; source: purified by a similar procedure to Spy
B4: Spy_(29-138) (domain or fragment, UniProt P77754 52-161, looked up)
chain: FKDLNLTDAQKQQIREIMKGQRDQMKRPPLEERRAMHDIIASDTFDKVKAEAQIAKMEEQRKANMLAHMETQNKIYNILTPEQKKQFNANFEKRLTERPAAKGKMPATAE
notes: source: E. coli BL21 (DE3), purified (Ni-NTA, cation exchange, SEC); not shown: His6, N-terminal, cleaved; SUMO, N-terminal, cleaved
B5: Spy_(21-130) (domain or fragment, UniProt P77754 44-153, looked up)
chain: FGPHQDMMFKDLNLTDAQKQQIREIMKGQRDQMKRPPLEERRAMHDIIASDTFDKVKAEAQIAKMEEQRKANMLAHMETQNKIYNILTPEQKKQFNANFEKRLTERPAAK
notes: previously characterized truncation mutant of Spy; residue n is n+23 in P77754; source: E. coli BL21 (DE3), purified (Ni-NTA, cation exchange, SEC); not shown: His6-SUMO, N-terminal, cleaved
B6: Nt-pep (peptide)
peptide: ADTTTAAPADAKPMMHHKGKFGPHQDMM
notes: Unlabeled peptide; also called Nt-pep WT; peptide corresponding to Spy residues 1-28
B7: carboxymethylated α-lactalbumin (natural protein, bovine, UniProt P00711 20-142, looked up)
chain: EQLTKCEVFRELKDLKGYGGVSLPEWVCTTFHTSGYDTQAIVQNNDSTEYGLFQINNKIWCKDDQNPHSSNICNISCDKFLDDDLTDDIMCVKKILDKVGINYWLAHKALCSEKLDQWLCEKL
modifications: carboxymethylated (residues not stated); biotin (EZ-link NHS-biotin, 1:1 molar ratio of biotin to protein)
notes: α-lactalbumin, carboxymethylated and thereby unfolded; also called unfolded α-LA
B8: Nt-pep (peptide, UniProt P77754 24-51, looked up)
peptide: ADTTTAAPADAKPMMHHKGKFGPHQDMM
notes: disordered N terminus of Spy as a free peptide; residue n is n+23 in P77754; also called peptide corresponding to Spy residues 1-28

Substitutions are numbered along the chain they refer to. In names and notes the source's numbering stands.

Settings in all cases: both partners purified
One test concerns the target T1, Spy wild type. In words: BLI; Octet RED96; biotinylated client loaded on streptavidin sensors, dipped into Spy or Spy variants (0.25, 0.5, 1, 1.5, 2 uM) in 40 mM HEPES, 150 mM NaCl, pH 7.5; kon from kobs against [Spy], Kd = koff/kon. Background: Biolayer interferometry detects binding as a change in optical thickness at a sensor tip.
In a further test the target is T2, Spy (GGGS)2. Described as above.
For test [1], the target named is B4. Briefly: BLI; Octet RED96; client biotinylated and loaded on streptavidin sensors; Spy or Spy variant in solution at 0.25, 0.5, 1, 1.5 and 2 μM; 40 mM HEPES, 150 mM NaCl, pH 7.5; Kd calculated as koff/kon.
The target of test [2] is T3, Spy wild type (Spy_(1-138)). Described as above.
In test [3] the target is B4. The test is described as above. This is another data set of the same source.
Test [4] deals with T3, Spy wild type (Spy_(1-138)). Described as above. This is another data set of the same source.
The target in test [5] is B4. The description is as above. This is another data set of the same source.
The target of test [6] is T3, Spy wild type (Spy_(1-138)). The description is as above. The source holds these as a separate data set.
Test [7] concerns the target B7. Described as above.
Test [8] concerns the target B7. The test is described as above. This is another data set of the same source.
For test [9], the target named is B7. The test is described as above. The source holds these as a separate data set.
A further test has as its target T4, Im7 H40W L53A I54A. In words: BLI; Octet RED96; biotinylated client loaded on streptavidin sensors; Spy or Spy variants at 0.25, 0.5, 1, 1.5 and 2 μM in 40 mM HEPES, 150 mM NaCl, pH 7.5; Kd = koff/kon.
The target of test [10] is T5, Spy_(29-124). Briefly: NMR titration; 0.1 mM [15N]-Spy29-124 titrated with unlabeled peptide at Spy29-124:peptide 1:2 to 1:40; 1H-15N HSQC, 40 mM HEPES-NaOH, 150 mM NaCl, pH 7.5, 25 °C; global one-site fit of the CSPs of M64, H65, D66, I67, A69, K113, N116, A117, K121; saturation not reached, Kd only an estimate.
Test [11] concerns the target T6, Spy_(29-124). In words: NMR titration; 0.1 mM [15N]-Spy_(29-124) with unlabeled peptide at molar ratios 1:2 to 1:40; 2D 1H-15N HSQC; 40 mM HEPES-NaOH, 150 mM NaCl, pH 7.5, 25 °C; one-site binding model.

One may read the Kd as the equilibrium constant for the complex coming apart. One may read the koff as the first-order rate constant of dissociation. For orientation: kon means the rate constant with which the complex forms. For B1, in the test with Spy wild type, the Kd is 0.64 µM, the koff turned out to be 0.178 s⁻¹ and the kon turned out to be 276000 M⁻¹ s⁻¹. In the test with Spy (GGGS)2, this molecule registered a Kd of 0.53 µM, a koff of 0.123 s⁻¹ and a kon of 234000 M⁻¹ s⁻¹.

Consider B2, for which the koff is 0.087 s⁻¹ with Spy_(29-138) [1] and 0.199 s⁻¹ in [2]. Besides, the kon was 254000 M⁻¹ s⁻¹ in the test with Spy_(29-138) [3] and 299000 M⁻¹ s⁻¹ in [4]. Besides, the Kd in the test with Spy_(29-138) [5] is 0.34 µM; in test [6] it was 0.67 µM.

On to B3, for which the koff was 0.048 s⁻¹ in the test with Spy_(29-138) [1] and 0.114 s⁻¹ in test [2]. For the same molecule, the kon with Spy_(29-138) [3] was 178000 M⁻¹ s⁻¹; in test [4], 244000 M⁻¹ s⁻¹. The equilibrium dissociation constant (Kd) in the test with Spy_(29-138) [5] was 0.27 µM; in test [6], 0.47 µM.

On to B4, for which the off-rate (koff) in [7] was 0.0584 s⁻¹. In test [8], the kon is 145000 M⁻¹ s⁻¹. Besides, in test [9], the Kd is 0.4 µM.

For the molecule B5, the “fold increase in koff (against Spy wild type)” value with Im7 H40W L53A I54A is ~2 fold.

With B6, the Kd with Spy_(29-124) [10] is 4740 ± 160 µM.

On to ADTTTAAPADAKPMMHHKGKFGPHQRMM (peptide, UniProt P77754 24-51, looked up, Spy of E. coli, residues 1-28 with D26R) [Nt-pep D26R], for which, in the test with Spy_(29-124) [10], the Kd was 7040 ± 280 µM.

As for ADTTTAAPADAKPMMHHKGKFGPHQKMM (peptide, UniProt P77754 24-51, looked up, Spy of E. coli, residues 1-28 with D26K) [Nt-pep D26K], in the test with Spy_(29-124) [10], the Kd was 6330 ± 250 µM.

As to B7, the koff in test [2] is 0.726 s⁻¹. In [4], the kon was 216000 M⁻¹ s⁻¹. The equilibrium dissociation constant (Kd) in [6] was 3.36 µM.

Consider B8, for which the Kd with Spy_(29-124) [11] was determined as 4700 µM.

The values above are taken from article PMC9122904, “Insights into the client protein release mechanism of the ATP-independent chaperone Spy” (Nature Communications, 2022).
